Experimental data from patent publication US20200262877A1, “ION CHANNEL-BINDING PEPTIDES AND METHODS OF USE THEREOF” (priority 2017, published 2020).

Tests used:
Kv2.1 = biological target: T1, Kv2.1 (Homo sapiens, UniProt Q14721); assay: cell-based; conditions: 100% = no change, <100% = inhibition
T1 construct: host or cells: HEK293 or CHO
Outline: (§1)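 Transfected HEK293 or CHO cells were exposed for at least 5 min to peptides at 200 nM and 20 μM final, tested in duplicate, in HEPES-buffered physiological saline. Activation was taken as peptide-plus-agonist current over control current ×100, and inhibition as 1 minus that ratio ×100. Each channel's control was its own reference compound.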

Cav2.2 = biological target: T2, Cav2.2 (Homo sapiens, UniProt Q00975); assay: cell-based; conditions: 100% = no change, <100% = inhibition
T2 construct: host or cells: HEK293 or CHO
Outline: as §1

Cav2.1 = biological target: T3, Cav2.1 (Homo sapiens, UniProt O00555); assay: cell-based; conditions: 100% = no change, <100% = inhibition
T3 construct: host or cells: HEK293 or CHO
Outline: as §1

α3β4 = biological target: T4, α3β4 (Homo sapiens, UniProt P30926+P32297); assay: Ion channel panel (IonWorks Barracuda): α3β4; format: cell-based; conditions: 100% = no change, <100% = inhibition
T4 construct: host or cells: HEK293 or CHO
Outline: as §1

α4β2 = biological target: T5, α4β2 (Homo sapiens, UniProt P17787+P43681); assay: Ion channel panel (IonWorks Barracuda): α4β2; format: cell-based; conditions: 100% = no change, <100% = inhibition
T5 construct: host or cells: HEK293 or CHO
Outline: as §1

Nav1.7 = biological target: T6, Nav1.7 (Homo sapiens, UniProt Q15858); assay: cell-based; format: cell-based; conditions: 100% = no change; for Activity of Nav1.7 with peptide, expressed as a percentage of the reference compound: peptide at 0.2 μM; for Activity of Nav1.7 with peptide (percentage of the reference compound): peptide at 20 μM
T6 construct: host or cells: HEK293 or CHO
T6 sequence (Q15858 whole entry): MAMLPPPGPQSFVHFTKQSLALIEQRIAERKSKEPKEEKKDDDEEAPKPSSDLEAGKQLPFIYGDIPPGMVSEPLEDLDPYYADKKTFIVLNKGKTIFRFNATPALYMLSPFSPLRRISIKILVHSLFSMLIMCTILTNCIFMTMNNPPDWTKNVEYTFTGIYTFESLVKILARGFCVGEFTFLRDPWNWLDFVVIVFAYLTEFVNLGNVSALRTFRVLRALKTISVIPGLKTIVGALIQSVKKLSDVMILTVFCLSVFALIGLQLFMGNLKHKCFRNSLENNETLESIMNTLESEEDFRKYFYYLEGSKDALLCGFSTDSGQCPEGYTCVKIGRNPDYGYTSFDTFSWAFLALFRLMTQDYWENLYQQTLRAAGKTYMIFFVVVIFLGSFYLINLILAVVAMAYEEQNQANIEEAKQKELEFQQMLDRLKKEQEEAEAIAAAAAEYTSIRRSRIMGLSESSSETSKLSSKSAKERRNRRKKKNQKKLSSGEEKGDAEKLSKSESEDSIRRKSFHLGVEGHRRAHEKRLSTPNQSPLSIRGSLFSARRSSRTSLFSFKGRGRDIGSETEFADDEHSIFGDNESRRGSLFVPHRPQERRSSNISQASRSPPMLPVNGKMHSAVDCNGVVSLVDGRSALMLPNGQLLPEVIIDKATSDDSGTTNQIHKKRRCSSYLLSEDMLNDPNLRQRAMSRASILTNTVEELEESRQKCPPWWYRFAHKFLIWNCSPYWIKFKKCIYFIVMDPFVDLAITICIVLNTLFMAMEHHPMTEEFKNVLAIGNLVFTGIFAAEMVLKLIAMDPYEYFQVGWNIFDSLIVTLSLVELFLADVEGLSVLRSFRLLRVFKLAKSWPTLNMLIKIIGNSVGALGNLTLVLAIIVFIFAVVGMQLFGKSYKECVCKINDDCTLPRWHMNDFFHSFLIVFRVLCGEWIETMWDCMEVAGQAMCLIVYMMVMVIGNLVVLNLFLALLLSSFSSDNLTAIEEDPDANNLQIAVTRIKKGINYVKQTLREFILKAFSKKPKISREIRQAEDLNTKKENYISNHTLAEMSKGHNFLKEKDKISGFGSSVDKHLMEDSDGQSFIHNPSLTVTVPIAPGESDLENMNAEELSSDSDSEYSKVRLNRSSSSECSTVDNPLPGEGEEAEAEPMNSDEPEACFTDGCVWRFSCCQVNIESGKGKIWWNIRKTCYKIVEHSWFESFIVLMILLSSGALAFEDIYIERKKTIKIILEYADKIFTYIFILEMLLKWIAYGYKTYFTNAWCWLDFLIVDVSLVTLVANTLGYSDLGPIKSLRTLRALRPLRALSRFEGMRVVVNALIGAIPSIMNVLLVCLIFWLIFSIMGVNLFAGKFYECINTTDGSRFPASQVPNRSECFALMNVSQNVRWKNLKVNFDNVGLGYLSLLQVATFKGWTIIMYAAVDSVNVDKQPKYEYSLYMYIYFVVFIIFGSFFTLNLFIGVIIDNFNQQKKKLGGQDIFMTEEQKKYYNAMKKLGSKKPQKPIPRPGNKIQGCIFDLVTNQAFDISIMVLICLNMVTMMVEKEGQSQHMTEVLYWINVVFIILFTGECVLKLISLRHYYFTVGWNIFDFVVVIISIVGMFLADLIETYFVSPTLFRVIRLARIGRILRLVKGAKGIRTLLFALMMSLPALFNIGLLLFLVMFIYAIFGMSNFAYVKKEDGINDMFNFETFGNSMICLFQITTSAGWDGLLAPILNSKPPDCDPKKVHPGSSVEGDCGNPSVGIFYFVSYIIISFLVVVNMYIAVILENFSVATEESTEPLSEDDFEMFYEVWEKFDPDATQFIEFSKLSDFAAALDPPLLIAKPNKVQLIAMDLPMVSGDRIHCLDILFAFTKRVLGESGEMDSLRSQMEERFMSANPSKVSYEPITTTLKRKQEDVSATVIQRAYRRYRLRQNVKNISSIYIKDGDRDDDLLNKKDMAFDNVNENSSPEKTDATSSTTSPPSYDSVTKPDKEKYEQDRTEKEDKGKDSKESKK

NR2B = biological target: T7, NR2B (Homo sapiens, UniProt Q13224); assay: Ion channel panel (IonWorks Barracuda): NR2B; format: cell-based; conditions: 100% = no change, <100% = inhibition
T7 construct: host or cells: HEK293 or CHO
Outline: as §1

TRPA1 = biological target: T8, TRPA1 (Homo sapiens, UniProt O75762); assay: Ion channel panel (IonWorks Barracuda): TRPA1; format: cell-based; conditions: 100% = no change, <100% = inhibition
T8 construct: host or cells: HEK293 or CHO
Outline: as §1

Kir2.1 = biological target: T9, Kir2.1 (Homo sapiens, UniProt P63252); assay: Ion channel panel (IonWorks Barracuda): Kir2.1; format: cell-based; conditions: 100% = no change, <100% = inhibition
T9 construct: host or cells: HEK293 or CHO
T9 sequence (P63252 whole entry): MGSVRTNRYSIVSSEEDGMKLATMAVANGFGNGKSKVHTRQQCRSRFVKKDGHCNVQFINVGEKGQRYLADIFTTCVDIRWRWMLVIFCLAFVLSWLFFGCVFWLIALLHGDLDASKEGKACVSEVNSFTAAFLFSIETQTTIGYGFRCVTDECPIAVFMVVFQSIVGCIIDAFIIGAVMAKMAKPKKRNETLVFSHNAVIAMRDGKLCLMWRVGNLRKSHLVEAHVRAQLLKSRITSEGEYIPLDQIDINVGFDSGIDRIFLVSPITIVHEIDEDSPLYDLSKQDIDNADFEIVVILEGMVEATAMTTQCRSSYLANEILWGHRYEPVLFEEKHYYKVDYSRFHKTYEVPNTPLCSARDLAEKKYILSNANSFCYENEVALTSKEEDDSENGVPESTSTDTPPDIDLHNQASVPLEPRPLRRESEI
Outline: as §1

hERG = hERG (Homo sapiens, UniProt Q12809); assay: in vitro; conditions: 100% = no change, <100% = inhibition
Outline: as §1

Nav1.5 = Nav1.5 (Homo sapiens, UniProt Q14524); assay: in vitro; conditions: 100% = no change; for Activity of Nav1.5 with peptide, expressed as a percentage of the reference compound: peptide at 0.2 μM; for Activity of Nav1.5 with peptide (percentage of the reference compound): peptide at 20 μM
Chain of Nav1.5 (Q14524 whole entry): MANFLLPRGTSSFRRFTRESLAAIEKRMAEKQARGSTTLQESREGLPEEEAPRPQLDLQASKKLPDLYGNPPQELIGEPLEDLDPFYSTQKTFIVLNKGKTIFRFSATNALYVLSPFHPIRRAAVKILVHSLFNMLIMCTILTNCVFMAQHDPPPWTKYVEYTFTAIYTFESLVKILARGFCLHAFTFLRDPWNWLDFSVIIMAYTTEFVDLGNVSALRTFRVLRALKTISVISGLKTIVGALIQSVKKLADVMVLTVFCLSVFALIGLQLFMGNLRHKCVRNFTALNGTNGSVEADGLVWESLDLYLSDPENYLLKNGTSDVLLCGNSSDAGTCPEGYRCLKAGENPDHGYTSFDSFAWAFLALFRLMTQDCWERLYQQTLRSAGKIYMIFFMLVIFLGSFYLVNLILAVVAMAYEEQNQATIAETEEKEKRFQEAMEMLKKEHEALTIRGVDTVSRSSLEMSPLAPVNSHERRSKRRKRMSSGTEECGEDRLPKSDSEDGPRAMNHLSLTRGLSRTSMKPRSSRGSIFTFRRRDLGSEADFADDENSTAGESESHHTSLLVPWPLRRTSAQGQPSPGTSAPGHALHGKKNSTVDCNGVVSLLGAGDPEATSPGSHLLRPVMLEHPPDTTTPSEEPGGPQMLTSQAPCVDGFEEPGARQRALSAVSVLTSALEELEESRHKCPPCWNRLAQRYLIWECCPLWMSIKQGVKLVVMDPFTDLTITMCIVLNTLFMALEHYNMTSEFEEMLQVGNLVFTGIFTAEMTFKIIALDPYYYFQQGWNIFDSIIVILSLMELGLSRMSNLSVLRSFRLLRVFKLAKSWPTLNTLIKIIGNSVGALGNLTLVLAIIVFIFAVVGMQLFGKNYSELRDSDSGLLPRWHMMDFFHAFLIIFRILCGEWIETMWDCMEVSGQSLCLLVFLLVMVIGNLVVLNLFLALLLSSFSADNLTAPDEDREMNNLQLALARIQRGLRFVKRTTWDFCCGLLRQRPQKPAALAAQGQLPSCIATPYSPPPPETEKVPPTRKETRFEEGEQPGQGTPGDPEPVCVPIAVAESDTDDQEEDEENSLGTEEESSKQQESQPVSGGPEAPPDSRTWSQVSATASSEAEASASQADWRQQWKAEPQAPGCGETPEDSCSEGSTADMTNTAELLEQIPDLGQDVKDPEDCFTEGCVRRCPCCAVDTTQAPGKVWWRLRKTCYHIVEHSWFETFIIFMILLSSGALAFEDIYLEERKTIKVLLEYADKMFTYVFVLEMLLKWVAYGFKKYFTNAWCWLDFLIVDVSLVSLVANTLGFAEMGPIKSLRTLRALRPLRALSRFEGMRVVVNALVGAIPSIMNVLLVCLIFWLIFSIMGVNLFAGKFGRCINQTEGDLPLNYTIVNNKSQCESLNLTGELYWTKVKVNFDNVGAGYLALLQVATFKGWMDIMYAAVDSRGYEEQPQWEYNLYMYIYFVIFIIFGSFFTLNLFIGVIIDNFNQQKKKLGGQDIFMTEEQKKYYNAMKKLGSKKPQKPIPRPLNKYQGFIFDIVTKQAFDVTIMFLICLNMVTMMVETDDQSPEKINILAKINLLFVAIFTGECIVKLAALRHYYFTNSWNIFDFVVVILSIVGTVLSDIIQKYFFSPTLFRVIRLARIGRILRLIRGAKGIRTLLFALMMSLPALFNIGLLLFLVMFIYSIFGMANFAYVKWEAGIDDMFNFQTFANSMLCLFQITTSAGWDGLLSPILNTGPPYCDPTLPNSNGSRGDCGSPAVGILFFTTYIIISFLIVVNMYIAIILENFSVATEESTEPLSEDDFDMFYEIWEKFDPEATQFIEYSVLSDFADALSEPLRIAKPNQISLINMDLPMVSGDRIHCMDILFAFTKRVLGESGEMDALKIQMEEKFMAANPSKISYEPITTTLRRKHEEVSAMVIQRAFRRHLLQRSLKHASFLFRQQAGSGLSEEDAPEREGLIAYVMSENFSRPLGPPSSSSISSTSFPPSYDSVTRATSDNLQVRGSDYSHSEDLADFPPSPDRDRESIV
Outline: as §1

5HT3a = biological target: T10, 5HT3a (Homo sapiens, UniProt P46098); assay: Ion channel panel (IonWorks Barracuda): 5HT3a; format: cell-based
T10 construct: host or cells: HEK293 or CHO
T10 sequence (P46098 whole entry, looked up): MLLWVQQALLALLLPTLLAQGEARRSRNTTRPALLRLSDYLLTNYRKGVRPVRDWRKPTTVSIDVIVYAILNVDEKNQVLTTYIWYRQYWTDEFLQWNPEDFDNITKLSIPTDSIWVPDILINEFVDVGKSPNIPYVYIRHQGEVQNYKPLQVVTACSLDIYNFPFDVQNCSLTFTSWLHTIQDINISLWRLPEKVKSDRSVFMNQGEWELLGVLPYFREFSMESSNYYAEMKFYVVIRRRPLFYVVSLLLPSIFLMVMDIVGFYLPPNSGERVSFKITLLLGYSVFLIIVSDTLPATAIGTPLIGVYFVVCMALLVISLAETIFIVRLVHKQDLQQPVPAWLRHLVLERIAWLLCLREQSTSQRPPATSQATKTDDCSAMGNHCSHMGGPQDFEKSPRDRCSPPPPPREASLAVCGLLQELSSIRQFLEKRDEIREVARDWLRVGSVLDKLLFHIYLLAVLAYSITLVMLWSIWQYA
Outline: as §1

TRPV1 = biological target: T11, TRPV1 (Homo sapiens, UniProt Q8NER1); assay: Ion channel panel (IonWorks Barracuda): TRPV1; format: cell-based; conditions: 100% = no change, <100% = inhibition
T11 construct: host or cells: HEK293 or CHO
Outline: as §1

Kv1.2 = biological target: T12, Kv1.2 (Homo sapiens, UniProt P16389); assay: cell-based; format: cell-based; conditions: 100% = no change, <100% = inhibition
T12 construct: host or cells: HEK293 or CHO
T12 sequence (P16389 whole entry): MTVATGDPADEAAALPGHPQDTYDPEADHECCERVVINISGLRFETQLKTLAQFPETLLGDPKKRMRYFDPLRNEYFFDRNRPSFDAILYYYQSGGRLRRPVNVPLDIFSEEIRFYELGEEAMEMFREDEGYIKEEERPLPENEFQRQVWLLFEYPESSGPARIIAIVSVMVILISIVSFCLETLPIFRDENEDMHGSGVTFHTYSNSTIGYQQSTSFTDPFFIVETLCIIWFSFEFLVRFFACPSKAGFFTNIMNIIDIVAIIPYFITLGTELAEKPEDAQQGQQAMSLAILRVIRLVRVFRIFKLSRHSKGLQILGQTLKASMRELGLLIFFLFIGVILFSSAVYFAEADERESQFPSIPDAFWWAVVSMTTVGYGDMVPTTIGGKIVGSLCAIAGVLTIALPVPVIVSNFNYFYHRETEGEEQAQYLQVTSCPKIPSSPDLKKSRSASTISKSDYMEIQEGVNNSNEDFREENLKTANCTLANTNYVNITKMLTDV
Outline: as §1

Kv1.1 = biological target: T13, Kv1.1 (Homo sapiens, UniProt Q09470); assay: cell-based; format: cell-based; conditions: 100% = no change, <100% = inhibition
T13 construct: host or cells: HEK293 or CHO
Outline: as §1

Kv1.3 = biological target: T14, Kv1.3 (Homo sapiens, UniProt P22001); assay: cell-based; format: cell-based; conditions: 100% = no change, <100% = inhibition
T14 construct: host or cells: HEK293 or CHO
Outline: as §1

NR2A = biological target: T15, NR2A (Homo sapiens, UniProt Q12879); assay: Ion channel panel (IonWorks Barracuda): NR2A; format: cell-based; conditions: 100% = no change, <100% = inhibition
T15 construct: host or cells: HEK293 or CHO
Outline: as §1

GABA = assay: Ion channel panel (IonWorks Barracuda): GABA; format: cell-based; conditions: 100% = no change, <100% = inhibition
Outline: as §1

[1] = first of two Nav1.7 columns (probably TP1)
[2] = second of two Nav1.7 columns (probably TP2)
[3] = first of two Nav1.5 columns (probably TP1)
[4] = second of two Nav1.5 columns (probably TP2)

In the case of “11 (GSGDCLPHLKRCKENNDCCSKKCKRRGANPEKRCR) [compound 11]”, the “Activity of Kv2.1 with peptide, expressed as a percentage of the reference compound” value (Kv2.1; peptide at 0.2 μM) is reported as 121%, the “Activity of Kv2.1 with peptide (percentage of the reference compound)” value (Kv2.1; peptide at 20 μM) is reported as 110% and the “Activity of Cav2.2 with peptide, expressed as a percentage of the reference compound” value (Cav2.2; peptide at 0.2 μM) is reported as 100%. The “Activity of Cav2.2 with peptide (percentage of the reference compound)” value (Cav2.2; peptide at 20 μM) was 103%, the “Activity of Cav2.1 with peptide, expressed as a percentage of the reference compound” value (Cav2.1; peptide at 0.2 μM) was 104% and the “Activity of Cav2.1 with peptide (percentage of the reference compound)” value (Cav2.1; peptide at 20 μM) was 110%. The “Activity of a3b4 with peptide, expressed as a percentage of the reference compound” value (α3β4; peptide at 0.2 μM) was 95%, the “Activity of a3b4 with peptide (percentage of the reference compound)” value (α3β4; peptide at 20 μM) was 96% and the “Activity of a4b2 with peptide, expressed as a percentage of the reference compound” value (α4β2; peptide at 0.2 μM) was 111%. For the same substance, the “Activity of a4b2 with peptide (percentage of the reference compound)” value (α4β2; peptide at 20 μM) was 88%, the “Activity of Nav1.7 with peptide, expressed as a percentage of the reference compound” value (Nav1.7; [1]) was 107% and the “Activity of Nav1.7 with peptide, expressed as a percentage of the reference compound” value (Nav1.7; [2]) was 107%. For the same substance, the “Activity of Nav1.7 with peptide (percentage of the reference compound)” value (Nav1.7; [1]) was 96%, the “Activity of Nav1.7 with peptide (percentage of the reference compound)” value (Nav1.7; [2]) was 87% and the “Activity of NR2B with peptide, expressed as a percentage of the reference compound” value (NR2B; peptide at 0.2 μM) was 103%. For the same substance, the “Activity of NR2B with peptide (percentage of the reference compound)” value (NR2B; peptide at 20 μM) was 78%, the “Activity of TRPA1 with peptide, expressed as a percentage of the reference compound” value (TRPA1; peptide at 0.2 μM) was 100% and the “Activity of TRPA1 with peptide (percentage of the reference compound)” value (TRPA1; peptide at 20 μM) was 109%. For the same substance, the “Activity of Kir2.1 with peptide, expressed as a percentage of the reference compound” value (Kir2.1; peptide at 0.2 μM) was 107%, the “Activity of Kir2.1 with peptide (percentage of the reference compound)” value (Kir2.1; peptide at 20 μM) was 97% and the “Activity of hERG with peptide, expressed as a percentage of the reference compound” value (hERG; peptide at 0.2 μM) was 97%. For the same substance, the “Activity of hERG with peptide (percentage of the reference compound)” value (hERG; peptide at 20 μM) was 99%, the “Activity of Nav1.5 with peptide, expressed as a percentage of the reference compound” value (Nav1.5; [3]) was 107% and the “Activity of Nav1.5 with peptide, expressed as a percentage of the reference compound” value (Nav1.5; [4]) was 107%. For the same substance, the “Activity of Nav1.5 with peptide (percentage of the reference compound)” value (Nav1.5; [3]) was 113%, the “Activity of Nav1.5 with peptide (percentage of the reference compound)” value (Nav1.5; [4]) was 118% and the “Activity of 5HT3a with peptide (percentage of the reference compound)” value (5HT3a) was 85%. The “Activity of 5HT3a with peptide, expressed as a percentage of the reference compound” value (5HT3a) was 73%, the “Activity of TRPV1 with peptide, expressed as a percentage of the reference compound” value (TRPV1; peptide at 0.2 μM) was 100% and the “Activity of TRPV1 with peptide (percentage of the reference compound)” value (TRPV1; peptide at 20 μM) was 100%. For the same substance, the “Activity of Kv1.2 with peptide, expressed as a percentage of the reference compound” value (Kv1.2; peptide at 0.2 μM) was 103%, the “Activity of Kv1.2 with peptide (percentage of the reference compound)” value (Kv1.2; peptide at 20 μM) was 46% and the “Activity of Kv1.1 with peptide, expressed as a percentage of the reference compound” value (Kv1.1; peptide at 0.2 μM) was 99%. For the same substance, the “Activity of Kv1.1 with peptide (percentage of the reference compound)” value (Kv1.1; peptide at 20 μM) was 55%, the “Activity of Kv1.3 with peptide, expressed as a percentage of the reference compound” value (Kv1.3; peptide at 0.2 μM) was 101% and the “Activity of Kv1.3 with peptide (percentage of the reference compound)” value (Kv1.3; peptide at 20 μM) was 87%. The “Activity of NR2A with peptide, expressed as a percentage of the reference compound” value (NR2A; peptide at 0.2 μM) was 103%, the “Activity of NR2A with peptide (percentage of the reference compound)” value (NR2A; peptide at 20 μM) was 106% and the “Activity of GABA with peptide, expressed as a percentage of the reference compound” value (GABA; peptide at 0.2 μM) was 96%. For the same substance, the “Activity of GABA with peptide (percentage of the reference compound)” value (GABA; peptide at 20 μM) was 105%.
